This passage reports Kd results from paper PMC10351726 (2023).

The target of the experiment is HER2-ECD biotinylated at single site (human, UniProt P04626 23-652, biotinylated at single site). Description: SPR. For orientation: Surface plasmon resonance follows binding to a sensor surface in real time, without labels.

Positions count from the first letter of the chain named.

B1: NanoMab-02 (NM-02) (VHH)
VHH: QVQLQESGGGSVQAGETLRLSCTASGFTFDDSDMGWYRQAPGNECELVSSISSDGSTYYADSVKGRFTISQDNAKNTVYLQMNSLKPEDTGVYYCAAEGHRYELGTCAALDYWGRGTQVTVSS
One may read the Kd as the free concentration of one partner at which half of the binding sites on the other are occupied at equilibrium, for simple one-to-one binding. A high value points to a looser complex. For B1, the dissociation constant Kd came out at 0.183 nM.

B2: humanised NM-02 variant E (VHH)
VHH: B1 VHH with S11L, A14P, E16G, T17S, T23S, A74S, V78L, K86R, P87A, Q118L
Regarding B2, the affinity, expressed as Kd, was 0.434 nM.
